Reference: patent US20230381333A1 (HANMI PHARM, published 2023)
Bridge positions count the residues as written; N and C are the ends. Square brackets hold non-standard residues; d marks the D form. Ends that are not written are not given here. * marks the point of attachment. Acetyl(2-(4-imidazolyl)) = O=C(Cc1c[nH]cn1)*; Aib = CC(C)(N)C(=O)O

T1: human GIP receptor (human, UniProt P48546 22-466)
T1 sequence (looked up): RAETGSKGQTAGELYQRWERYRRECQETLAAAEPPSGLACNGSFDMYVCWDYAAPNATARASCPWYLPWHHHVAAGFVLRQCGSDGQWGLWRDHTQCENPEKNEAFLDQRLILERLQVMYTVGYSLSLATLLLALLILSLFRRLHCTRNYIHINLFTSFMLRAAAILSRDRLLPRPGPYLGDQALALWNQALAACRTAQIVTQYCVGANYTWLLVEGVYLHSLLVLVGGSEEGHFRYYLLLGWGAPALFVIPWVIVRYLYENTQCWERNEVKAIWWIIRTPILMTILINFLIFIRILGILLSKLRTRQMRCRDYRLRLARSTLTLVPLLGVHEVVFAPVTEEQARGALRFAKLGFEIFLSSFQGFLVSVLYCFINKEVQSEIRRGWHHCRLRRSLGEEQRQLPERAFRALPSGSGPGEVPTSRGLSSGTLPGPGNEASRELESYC


Key:
Assay in all cases: cell-based or functional assay
[1] = molecular target: human GCG receptor (human, UniProt P47871 26-477)
Chain of human GCG receptor (P47871 26-477): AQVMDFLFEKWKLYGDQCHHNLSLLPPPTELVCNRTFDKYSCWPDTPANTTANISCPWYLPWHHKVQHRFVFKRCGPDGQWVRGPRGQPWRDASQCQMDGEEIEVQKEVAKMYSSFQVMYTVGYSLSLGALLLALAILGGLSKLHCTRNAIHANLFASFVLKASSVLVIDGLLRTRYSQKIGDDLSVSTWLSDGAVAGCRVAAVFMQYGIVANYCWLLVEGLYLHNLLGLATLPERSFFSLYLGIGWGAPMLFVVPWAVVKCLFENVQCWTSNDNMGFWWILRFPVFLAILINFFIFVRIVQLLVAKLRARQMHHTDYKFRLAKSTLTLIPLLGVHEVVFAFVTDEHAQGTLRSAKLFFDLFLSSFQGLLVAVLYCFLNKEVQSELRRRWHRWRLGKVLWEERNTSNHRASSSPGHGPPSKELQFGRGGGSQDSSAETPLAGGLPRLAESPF

[2] = molecular target: human GLP-1 receptor (human, UniProt P43220 24-463)
[3] = molecular target: T1, human GIP receptor

Binder	In vitro activity compared to native-type peptide (%), vs Glucagon [1] [%]	In vitro activity compared to native-type peptide (%), vs GLP-1 [2] [%]	In vitro activity compared to native-type peptide (%), vs GIP [3] [%]
HGQGTFTSDCSKYLDEQHAQEFVAWLLAGGPSSGAPPPS [triple agonist of SEQ ID NO: 46]	< 0.1	1.4	< 0.1
HGQGTFTSDCSKYLDGQRAQEFVAWLLAGGPSSGAPPPS [triple agonist of SEQ ID NO: 47]	< 0.1	2.4	< 0.1
HGQGTFTSDCSKYLDGQRAQDFVNWLLAGGPSSGAPPPS [triple agonist of SEQ ID NO: 48]	< 0.1	1.5	< 0.1
[Acetyl(2-(4-imidazolyl))][Aib]QGTFTSDKSSYLDERAAQDFVQWLLDGGPSSGAPPPSS [triple agonist of SEQ ID NO: 38]		2.3	
H[Aib]EGTFTSDYSIAMDEIHQKDFVNWLLAQC (bridge 16-20) [triple agonist of SEQ ID NO: 53]	8.4	161	1.3
{Acetyl(2-(4-imidazolyl))}-[Aib]QGTFTSDYSICMDEKHQKDFVNWLLNTK (bridge 15-19) [triple agonist of SEQ ID NO: 59]	< 0.1	40.3	4
H[Aib]QGTFTSDYSKYLDEKRQKEFVNWLLAQKC (bridge 16-20) [triple agonist of SEQ ID NO: 34]	0.92	19.1	0.6
H[Aib]QGTFTSDYSKYLDEKRQKEFVQWLLNTC (bridge 16-20) [triple agonist of SEQ ID NO: 51]	2	14.4	0.1
H[Aib]QGTFTSDYSKYLDEKRQKEFVQWLLDTC (bridge 16-20) [triple agonist of SEQ ID NO: 52]	7.5	44.1	0.3
H[Aib]QGTFTSDVSSYLLGQQQKEFIAWLVKGC [triple agonist of SEQ ID NO: 4]	< 0.1	8.5	< 0.1
H[Aib]EGTFTSDYSIAMDEIHQKDFVDWLLAEC (bridge 16-20) [triple agonist of SEQ ID NO: 54]	1.4	30.6	0.1
H[Aib]QGTFTSDYSKYLDECRQKEFVQWLLNGGPSSGAPPPSG (bridge 16-20) [triple agonist of SEQ ID NO: 37]	6.21	236	2.2
H[Aib]QGTFTSDYSIAMDEIHQKDFVNWLLNTC (bridge 16-20) [triple agonist of SEQ ID NO: 57]	< 0.1	11.7	0.3
H[Aib]QGTFTSDYSKYLDGQHAQCFVAWLLAGGGPSSGAPPPS [triple agonist of SEQ ID NO: 39]	0.53	13.9	< 0.1
H[Aib]QGTFTSDYSKYLDEKRQKEFVQWLLNTKC (bridge 16-20) [triple agonist of SEQ ID NO: 58]	2.6	39.1	0.2
